# Reference: IntAct's records for PubMed 22879593
# Molecular target: USH1C, Q9Y6N9-1
# Sequence (Q9Y6N9 whole entry): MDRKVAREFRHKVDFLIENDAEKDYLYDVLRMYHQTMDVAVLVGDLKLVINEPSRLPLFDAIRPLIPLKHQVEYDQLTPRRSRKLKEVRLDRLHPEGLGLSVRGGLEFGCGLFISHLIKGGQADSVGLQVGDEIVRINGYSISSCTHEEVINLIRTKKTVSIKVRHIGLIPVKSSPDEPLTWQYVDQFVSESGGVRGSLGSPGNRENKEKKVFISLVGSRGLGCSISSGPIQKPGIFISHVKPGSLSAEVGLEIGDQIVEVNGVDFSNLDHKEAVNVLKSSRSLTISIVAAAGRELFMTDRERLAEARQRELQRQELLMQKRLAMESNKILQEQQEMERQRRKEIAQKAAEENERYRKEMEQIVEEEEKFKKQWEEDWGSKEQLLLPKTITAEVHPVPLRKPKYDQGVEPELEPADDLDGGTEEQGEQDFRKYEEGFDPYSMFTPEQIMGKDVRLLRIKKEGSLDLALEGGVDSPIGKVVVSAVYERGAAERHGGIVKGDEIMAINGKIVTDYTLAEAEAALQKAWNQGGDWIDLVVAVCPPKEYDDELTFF
row,Substance,effect of a mutation on the interaction
1,"Cadherin-23 (Homo sapiens), Q9H251 L3215Q",decreasing interaction strength
2,"Cadherin-23 (Homo sapiens), Q9H251 L3219Q",decreasing interaction strength
3,"Cadherin-23 (Homo sapiens), Q9H251 L3223Q",with no effect
4,"Cadherin-23 (Homo sapiens), Q9H251 L3225Q",with no effect
5,"Cadherin-23 (Homo sapiens), Q9H251 L3228Q",with no effect
6,"Cadherin-23 (Homo sapiens), Q9H251 Y3222E",decreasing interaction strength

# Molecular target: USH1C, Q9Y6N9-1
# Remark: another data set of the same source
row,Substance,effect of a mutation on the interaction
1,"Cadherin-23 (Homo sapiens), Q9H251 L3188Q;L3215Q",disrupting interaction strength
